The source of these data is patent US20140286960A1 (CANGENE, published 2014).

This experiment has as its target Staphylococcus aureus alpha-hemolysin (Staphylococcus aureus, UniProt P09616).

Staphylococcus aureus alpha-hemolysin, sequence (P09616 27-319 limits assumed): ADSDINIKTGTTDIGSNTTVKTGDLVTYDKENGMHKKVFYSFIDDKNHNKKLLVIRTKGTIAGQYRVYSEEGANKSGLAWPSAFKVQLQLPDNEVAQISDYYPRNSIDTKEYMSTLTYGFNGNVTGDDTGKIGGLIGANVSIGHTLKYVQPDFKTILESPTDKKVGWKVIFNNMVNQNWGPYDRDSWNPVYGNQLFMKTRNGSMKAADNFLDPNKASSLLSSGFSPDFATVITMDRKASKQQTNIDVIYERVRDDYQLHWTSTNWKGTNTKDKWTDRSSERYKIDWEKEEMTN

B1: CAN24G4 monoclonal antibody (antibody, V domains shown)
VH: EVHLQQSGAELVKPGASVRLSCTGSGLDIKDTYIHWVKKRPEQGLEWIGRIDPANGITKYDPKFQGKATVTADTSSNTAYLQFSSLTSEDSAVYYCSSEYYPYPMDYWGQGTSVTVSS
VL: DIKMTQPPSSMYASLGERVTVTCKASQDISSFLTWFQQKPGKSPKILIYRANRVVDGVPSRFSGSGSGHDYSLTISSLESEDMGIYYCLQYDEFPWTFGGGTKLEIK
The term Kd denotes the free concentration of one partner at which half of the binding sites on the other are occupied at equilibrium, for simple one-to-one binding. Broadly, the koff is the first-order rate constant of dissociation. A high value points to fast dissociation. For orientation: kon means the rate constant with which the complex forms. A high value points to fast association. B1: the Kd was 9.4 nM, the koff was 0.004 s⁻¹ and the kon was found to be 430000 M⁻¹ s⁻¹.
